For data set [1], the system named is HeLa Kyoto. Briefly: solubility in G1/S (NP-40 vs SDS abundance) (log2 ratio); higher = more soluble. The following applies: cell cycle stage: G1/S.
Data set [2] has as its system HeLa Kyoto. Briefly: melting temperature (median over replicates), in situ; higher = more thermally stable.
Data set [3] deals with HeLa Kyoto. Briefly: solubility change mitosis vs G1/S (difference of NP-40 vs SDS log2 ratios) (log2 ratio difference); higher = more soluble in mitosis.
Data set [4] has as its system HeLa Kyoto. In words: thermal stability score vs G1/S (z-score of summed log2 fold changes over temperatures); higher = more thermally stable than in G1/S.
Where [5] appears, read: cell cycle stage: early G1 (4.5 h after nocodazole release).

These results are taken from the supplement of paper PMC5998384.
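For melting temperature (median over replicates), in situ in this document: HeLa Kyoto cells synchronized by double thymidine or nocodazole block, proteins quantified by TMT10plex mass spectrometry, three independent biological replicates.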
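For solubility change mitosis vs G1/S (difference of NP-40 vs SDS log2 ratios) in this document: synchronized HeLa Kyoto cells (double thymidine block for G1/S, nocodazole release for mitosis), protein amounts in NP-40 versus SDS lysates quantified by mass spectrometry, three biological replicates.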
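For solubility in G1/S (NP-40 vs SDS abundance) in this document: HeLa Kyoto cells arrested at G1/S by double thymidine block, proteins quantified by TMT10plex mass spectrometry in mild NP-40 versus SDS extracts, three biological replicates.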
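For thermal stability score vs G1/S (z-score of summed log2 fold changes over temperatures) in this document: synchronized HeLa Kyoto cells, proteins quantified by TMT10plex mass spectrometry, three biological replicates, mitosis taken 0.5 h after nocodazole release, G1/S directly after double thymidine block.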

As for “MPTGFVAPILCVLLPSPTREAATVASATGDSASERESAAPAAAPTAEAPPPSVVTRPEPQALPSPAIRAPLPDLYPFGTMRGGGFGDRDRDRDRGGFGARGGGGLPPKKFGNPGERLRKKKWDLSELPKFEKNFYVEHPEVARLTPYEVDELRRKKEITVRGGDVCPKPVFAFHHANFPQYVMDVLMDQHFTEPTPIQCQGFPLALSGRDMVGIAQTGSGKTLAYLLPAIVHINHQPYLERGDGPICLVLAPTRELAQQVQQVADDYGKCSRLKSTCIYGGAPKGPQIRDLERGVEICIATPGRLIDFLESGKTNLRRCTYLVLDEADRMLDMGFEPQIRKIVDQIRPDRQTLMWSATWPKEVRQLAEDFLRDYTQINVGNLELSANHNILQIVDVCMESEKDHKLIQLMEEIMAEKENKTIIFVETKRRCDDLTRRMRRDGWPAMCIHGDKSQPERDWVLNEFRSGKAPILIATDVASRGLDVEDVKFVINYDYPNSSEDYVHRIGRTARSTNKGTAYTFFTPGNLKQARELIKVLEEANQAINPKLMQLVDHRGGGGGGGGRSRYRTTSSANNPNLMYQDECDRRLRGVKDGGRRDSASYRDRSETDRAGYANGSGYGSPNSAFGAQAGQYTYGQGTYGAAAYGTSSYTAQEYGAGTYGASSTTSTGRSSQSSSQQFSGIGRSGQQPQPLMSQQFAQPPGATNMIGYMGQTAYQYPPPPPPPPPSRK [DDX17]”, in the data set with HeLa Kyoto [1], the “solubility in G1/S (log2)” value was -0.381. Moreover, the melting temperature was 49.1 °C in the data set with HeLa Kyoto [2] (cell cycle stage: G1/S) and 49.8 °C in the data set on HeLa Kyoto [2] (cell cycle stage: mitosis). The “solubility change mitosis (log2)” value in the data set on HeLa Kyoto [3] came to 0.16. For the same sequence, the thermal stability score with HeLa Kyoto [4] (setting [5]) was 3.12; in the data set with HeLa Kyoto [4] (cell cycle stage: mitosis), 5.66.

For the sequence “MPTVSVKRDLLFQALGRTYTDEEFDELCFEFGLELDEITSEKEIISKEQGNVKAAGASDVVLYKIDVPANRYDLLCLEGLVRGLQVFKERIKAPVYKRVMPDGKIQKLIITEETAKIRPFAVAAVLRNIKFTKDRYDSFIELQEKLHQNICRKRALVAIGTHDLDTLSGPFTYTAKRPSDIKFKPLNKTKEYTACELMNIYKTDNHLKHYLHIIENKPLYPVIYDSNGVVLSMPPIINGDHSRITVNTRNIFIECTGTDFTKAKIVLDIIVTMFSEYCENQFTVEAAEVVFPNGKSHTFPELAYRKEMVRADLINKKVGIRETPENLAKLLTRMYLKSEVIGDGNQIEIEIPPTRADIIHACDIVEDAAIAYGYNNIQMTLPKTYTIANQFPLNKLTELLRHDMAAAGFTEALTFALCSQEDIADKLGVDISATKAVHISNPKTAEFQVARTTLLPGLLKTIAANRKMPLPLKLFEISDIVIKDSNTDVGAKNYRHLCAVYYNKNPGFEIIHGLLDRIMQLLDVPPGEDKGGYVIKASEGPAFFPGRCAEIFARGQSVGKLGVLHPDVITKFELTMPCSSLEINVGPFL [FARSB]”, the “solubility in G1/S (log2)” value in the data set on HeLa Kyoto [1] was 0.00374. The melting temperature was determined as 50.4 °C with HeLa Kyoto [2] (cell cycle stage: G1/S) and 50.2 °C with HeLa Kyoto [2] (cell cycle stage: mitosis). In the data set on HeLa Kyoto [3], the “solubility change mitosis (log2)” value is -0.031. For the same sequence, the thermal stability score turned out to be 2.32 with HeLa Kyoto [4] (setting [5]) and 0.692 in the data set on HeLa Kyoto [4] (cell cycle stage: mitosis).

As for “MPVAGSELPRRPLPPAAQERDAEPRPPHGELQYLGQIQHILRCGVRKDDRTGTGTLSVFGMQARYSLRDEFPLLTTKRVFWKGVLEELLWFIKGSTNAKELSSKGVKIWDANGSRDFLDSLGFSTREEGDLGPVYGFQWRHFGAEYRDMESDYSGQGVDQLQRVIDTIKTNPDDRRIIMCAWNPRDLPLMALPPCHALCQFYVVNSELSCQLYQRSGDMGLGVPFNIASYALLTYMIAHITGLKPGDFIHTLGDAHIYLNHIEPLKIQLQREPRPFPKLRILRKVEKIDDFKAEDFQIEGYNPHPTIKMEMAV [TYMS]”, the “solubility in G1/S (log2)” value with HeLa Kyoto [1] was -0.0779. Moreover, the melting temperature in the data set on HeLa Kyoto [2] (cell cycle stage: G1/S) turned out to be 49.2 °C; with HeLa Kyoto [2] (cell cycle stage: mitosis) it was 49 °C. In addition, the “solubility change mitosis (log2)” value in the data set with HeLa Kyoto [3] was -0.0717. Moreover, the thermal stability score was -0.449 with HeLa Kyoto [4] (setting [5]) and 1.58 in the data set on HeLa Kyoto [4] (cell cycle stage: mitosis).

With “MPVDLSKWSGPLSLQEVDEQPQHPLHVTYAGAAVDELGKVLTPTQVKNRPTSISWDGLDSGKLYTLVLTDPDAPSRKDPKYREWHHFLVVNMKGNDISSGTVLSDYVGSGPPKGTGLHRYVWLVYEQDRPLKCDEPILSNRSGDHRGKFKVASFRKKYELRAPVAGTCYQAEWDDYVPKLYEQLSGK [PEBP1]”, in the data set on HeLa Kyoto [1], the “solubility in G1/S (log2)” value was 0.607. Further, the results for the melting temperature in the data set on HeLa Kyoto [2] (cell cycle stage: G1/S) and in the data set on HeLa Kyoto [2] (cell cycle stage: mitosis) were 56.9 °C and 57.3 °C, respectively. For the same sequence, in the data set on HeLa Kyoto [3], the “solubility change mitosis (log2)” value came to 0.21. Moreover, the thermal stability score was -0.593 in the data set on HeLa Kyoto [4] (setting [5]) and -3.2 in the data set with HeLa Kyoto [4] (cell cycle stage: mitosis).

Regarding “MPVKGGTKCIKYLLFGFNFIFWLAGIAVLAIGLWLRFDSQTKSIFEQETNNNNSSFYTGVYILIGAGALMMLVGFLGCCGAVQESQCMLGLFFGFLLVIFAIEIAAAIWGYSHKDEVIKEVQEFYKDTYNKLKTKDEPQRETLKAIHYALNCCGLAGGVEQFISDICPKKDVLETFTVKSCPDAIKEVFDNKFHIIGAVGIGIAVVMIFGMIFSMILCCAIRRNREMV [CD9]”, the “solubility in G1/S (log2)” value with HeLa Kyoto [1] was -0.0106. The results for the melting temperature with HeLa Kyoto [2] (cell cycle stage: G1/S) and with HeLa Kyoto [2] (cell cycle stage: mitosis) were 62.4 °C and 60.4 °C, respectively. Also, the “solubility change mitosis (log2)” value in the data set with HeLa Kyoto [3] is -0.149. Also, the figures for the thermal stability score in the data set on HeLa Kyoto [4] (setting [5]) and in the data set with HeLa Kyoto [4] (cell cycle stage: mitosis) were 2.82 and 0.357, respectively.
